These results are taken from paper PMC11078181, “Genomic context– and H2AK119 ubiquitination–dependent inheritance of human Polycomb silencing” (Science Advances, 2024).

The assay deals with T1, Strep-RBBP7 (UniProt Q16576 1-425).
T1 construct: called full-length in the results; also called full-length RBB7; source: HEK293FT, transiently transfected, purified (Strep-Tactin Sepharose, eluted with desthiobiotin)
The assay is described as follows: pull-down; GST or GST-BCORL(S1474-G1644) (0.1 μM) on Glutathione Sepharose 4B with Strep-RBBP7 (0.1 μM), lysis buffer with 0.1% Triton X-100, overnight at 4°C; stain-free SDS-PAGE. As to conditions: both partners purified.

T1 sequence (Q16576 whole entry): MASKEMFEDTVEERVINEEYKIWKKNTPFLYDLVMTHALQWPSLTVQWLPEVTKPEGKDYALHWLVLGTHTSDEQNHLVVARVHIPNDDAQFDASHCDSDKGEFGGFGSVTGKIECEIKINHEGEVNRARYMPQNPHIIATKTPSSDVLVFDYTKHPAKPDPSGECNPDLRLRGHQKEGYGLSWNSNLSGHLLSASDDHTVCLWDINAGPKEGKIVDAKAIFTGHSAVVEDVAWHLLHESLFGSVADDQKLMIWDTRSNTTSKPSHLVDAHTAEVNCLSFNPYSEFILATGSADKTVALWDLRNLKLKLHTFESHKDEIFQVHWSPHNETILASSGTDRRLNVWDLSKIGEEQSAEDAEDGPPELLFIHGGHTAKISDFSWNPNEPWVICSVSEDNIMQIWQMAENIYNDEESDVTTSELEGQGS

B1: GST-BCORL(S1474-G1644) (domain or fragment, UniProt Q5H9F3 1474-1644, looked up)
chain: SESPTARQIPPEARRLIVNKNAGETLLQRAARLGYKDVVLYCLQKDSEDVNHRDNAGYTALHEACSRGWTDILNILLEHGANVNCSAQDGTRPVHDAVVNDNLETIWLLLSYGADPTLATYSGQTAMKLASSDTMKRFLSDHLSDLQGRAEGDPGVSWDFYSSSVLEEKDG
notes: also called GST-BCORL fragment; source: E. coli BL21, purified (Glutathione Sepharose 4B, eluted with glutathione, dialysed); not shown: GST, N-terminal, kept
Turning to B1, the binding result is reported as “binds”.
